Earlier results as cited in article PMC9381557.

Target: RAGE V domain (Homo sapiens) (UniProt Q15109)
Sequence of UniProt Q15109 (Q15109 23-116): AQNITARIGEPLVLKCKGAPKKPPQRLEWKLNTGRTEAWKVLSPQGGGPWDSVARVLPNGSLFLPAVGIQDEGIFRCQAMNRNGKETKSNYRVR

Kd: 6.8 µM
Substance: S100P (from UniProt P25815)
